# Assay results published in article PMC6423188, “HYNIC and DOMA conjugated radiolabeled bombesin analogs as receptor-targeted probes for scintigraphic detection of breast tumor” (EJNMMI Research, 2019).
# Read-outs that look alike come from different tables or passages of the source. Where a SMILES comes first, the peptide text is derived from it.
# What was measured:
# In vivo biodistribution = assay: In vivo biodistribution; design: species or system mouse; settings: BALB/c, mouse, in vivo, total radioactivity
# Description: (§1) All animal experiments were done according to the CSIR-IICB Animal Ethics Committee’s rules and regulation. Forty-eight hours before tumor cell implantation, an immunosuppressive drug (cyclosporine-A) was given intraperitoneal (i.p) at a concentration of 30 mg/kg/day. After that, MDA-MB-231 cells (5 × 10^6) 0.2 mL were implanted subcutaneously into the left flanks of the hind leg of BALB/c mice. Thereafter, the same dose of cyclosporine was given i.p. daily up to 2 weeks. Two weeks after inoculation of the tumor cells, when tumors reached ~ 0.5 cm in mean diameter, the tumor-bearing mice were used for biodistribution and imaging studies. Animals were monitored daily and their weights were recorded. Control group of mice received only 0.9 wt% saline. After cell implantation, the growth rate of the breast tumor followed a satisfactory pattern of spheroid shape and tumors are palpable within 2 to 4 weeks. MDA-MB-231 cell implanted mice tumor models were used for biodistribution and planar imaging studies of these radiolabeled new bombesin analogs.
# (§2) In tissue biodistribution studies, tumor-bearing animals were divided into four groups and well hydrated for 1 h by intraperitoneal administration of saline (0.9%, 2 mL). Three animals per groups were used for biodistribution studies. After that, the radiolabeled new bombesin analogs (^99mTc-BN) were injected intravenously in each animal of each group consequently through the tail vein [24–27]. After 5, 30, 60, and 120 min intravenous administrations of radiolabeled analogs, the animals were sacrificed; blood, heart, lung, liver, kidney, stomach, intestine, spleen, pancreas, brain, muscle, and tumor were excised, weighed, and counted for radioactivity. The organ uptake was calculated as a percentage of the injected activity per gram of wet tissue (%IA/g). In order to evaluate whether binding of bombesin analogs to MDA-MB-231 cells in vivo is specific; blocking studies with ^99mTc-labeled bombesin analogs in tumor-bearing mice were carried out. Groups of three animals were injected 0.03 nmol of ^99mTc-labeled BN analogs (2 MBq) with 25 nmol of non-radiolabeled BN peptide. After 60 min and 120 min, mice were sacrificed and the organs were collected. Each organ was weighed and counted in a gamma counter along with activity standard and percentage of injected activity per gram (%IA/g) of tissue was calculated for each type of tissues. Counts were corrected for background radiation and physical decay of the radioactivity. The uptake was expressed in the percentage of injected activity per gram of each organ (%IA/g). Data were analyzed statistically by the t test, with the level of significance set at P < 0.05.
# [1] = tested on: MDA-MB-231 tumor-bearing mice; assay: In vivo biodistribution; design: species or system mouse; settings: BALB/c, mouse, in vivo, iv
# Description: as §1, §2
smiles,measurement,setting,value
"CCCC[C@H](NC(=O)[C@@H](Cc1ccc(O)cc1)NC(=O)[C@H](Cc1c[nH]cn1)NC(=O)[C@H]1CCCN1C(=O)[C@@H](NC(=O)[C@H](C)NC(=O)[C@H](Cc1c[nH]c2ccccc12)NC(=O)[C@H](CCC(N)=O)NC(=O)CCCNC(=O)CN1CCNCCNCCNCC1)C(C)C)C(N)=O [99mTc-BN4, ^99mTc-DOMA-GABA-[Pro^11Tyr^13Nle^14]-BN(7-14)NH2, metal not drawn] (HELM PEPTIDE1{[O=C(CN1CCNCCNCCNCC1)[*:2]].[O=C(CCCN[*:1])[*:2]].Q.W.A.V.[dP].H.[dY].[Nle].[am]}$$$$V2.0)",tissue uptake at 5 min,"In vivo biodistribution; iv, Blood uptake",0.42 ± 0.01 %ID/g
same,tissue uptake at 0.5 h,"In vivo biodistribution; iv, Blood uptake",0.81 ± 0.01 %ID/g
same,tissue uptake at 1 h,"In vivo biodistribution; iv, Blood uptake",0.42 ± 0.03 %ID/g
same,tissue uptake at 2 h,"In vivo biodistribution; iv, Blood uptake",0.17 %ID/g
same,tissue uptake at 5 min,"In vivo biodistribution; iv, Heart uptake",0.73 ± 0.03 %ID/g
same,tissue uptake at 0.5 h,"In vivo biodistribution; iv, Heart uptake",0.67 ± 0.02 %ID/g
same,tissue uptake at 1 h,"In vivo biodistribution; iv, Heart uptake",0.25 ± 0.02 %ID/g
same,tissue uptake at 2 h,"In vivo biodistribution; iv, Heart uptake",0.09 ± 0.04 %ID/g
same,tissue uptake at 5 min,"In vivo biodistribution; iv, Intestine uptake",1.01 ± 0.06 %ID/g
same,tissue uptake at 0.5 h,"In vivo biodistribution; iv, Intestine uptake",1.6 ± 0.05 %ID/g
same,tissue uptake at 1 h,"In vivo biodistribution; iv, Intestine uptake",2.15 ± 0.21 %ID/g
same,tissue uptake at 2 h,"In vivo biodistribution; iv, Intestine uptake",0.82 ± 0.05 %ID/g
same,tissue uptake at 5 min,"In vivo biodistribution; iv, Kidney uptake",2.17 ± 0.11 %ID/g
same,tissue uptake at 0.5 h,"In vivo biodistribution; iv, Kidney uptake",3.95 ± 0.21 %ID/g
same,tissue uptake at 1 h,"In vivo biodistribution; iv, Kidney uptake",3.1 ± 0.17 %ID/g
same,tissue uptake at 2 h,"In vivo biodistribution; iv, Kidney uptake",2.1 ± 0.13 %ID/g
same,tissue uptake at 5 min,"In vivo biodistribution; iv, Liver uptake",0.4 ± 0.03 %ID/g
same,tissue uptake at 0.5 h,"In vivo biodistribution; iv, Liver uptake",0.32 ± 0.13 %ID/g
same,tissue uptake at 1 h,"In vivo biodistribution; iv, Liver uptake",0.28 ± 0.12 %ID/g
same,tissue uptake at 2 h,"In vivo biodistribution; iv, Liver uptake",0.17 ± 0.03 %ID/g
same,tissue uptake at 5 min,"In vivo biodistribution; iv, Lung uptake",1.07 ± 0.14 %ID/g
same,tissue uptake at 0.5 h,"In vivo biodistribution; iv, Lung uptake",0.82 ± 0.03 %ID/g
same,tissue uptake at 1 h,"In vivo biodistribution; iv, Lung uptake",0.7 ± 0.02 %ID/g
same,tissue uptake at 2 h,"In vivo biodistribution; iv, Lung uptake",0.25 ± 0.11 %ID/g
same,tissue uptake at 5 min,"In vivo biodistribution; iv, Muscle uptake",0.26 ± 0.02 %ID/g
same,tissue uptake at 0.5 h,"In vivo biodistribution; iv, Muscle uptake",0.32 ± 0.04 %ID/g
same,tissue uptake at 1 h,"In vivo biodistribution; iv, Muscle uptake",0.25 ± 0.02 %ID/g
same,tissue uptake at 2 h,"In vivo biodistribution; iv, Muscle uptake",0.1 ± 0.01 %ID/g
same,tissue uptake at 5 min,"In vivo biodistribution; iv, Pancreas uptake",2.88 ± 0.11 %ID/g
same,tissue uptake at 0.5 h,"In vivo biodistribution; iv, Pancreas uptake",4.49 ± 0.03 %ID/g
same,tissue uptake at 1 h,"In vivo biodistribution; iv, Pancreas uptake",3.75 ± 0.06 %ID/g
same,tissue uptake at 2 h,"In vivo biodistribution; iv, Pancreas uptake",1.1 ± 0.04 %ID/g
same,tissue uptake at 5 min,"In vivo biodistribution; iv, Spleen uptake",0.62 ± 0.04 %ID/g
same,tissue uptake at 0.5 h,"In vivo biodistribution; iv, Spleen uptake",0.56 ± 0.01 %ID/g
same,tissue uptake at 1 h,"In vivo biodistribution; iv, Spleen uptake",0.24 ± 0.01 %ID/g
same,tissue uptake at 2 h,"In vivo biodistribution; iv, Spleen uptake",0.17 ± 0.02 %ID/g
same,tissue uptake at 5 min,"In vivo biodistribution; iv, Stomach uptake",0.47 ± 0.02 %ID/g
same,tissue uptake at 0.5 h,"In vivo biodistribution; iv, Stomach uptake",0.51 ± 0.04 %ID/g
same,tissue uptake at 2 h,"In vivo biodistribution; iv, Stomach uptake",0.12 ± 0.01 %ID/g
same,tissue uptake at 5 min,"In vivo biodistribution; iv, Tumor uptake",1.3 ± 0.01 %ID/g
same,tissue uptake at 0.5 h,"In vivo biodistribution; iv, Tumor uptake",3.32 ± 0.01 %ID/g
same,tissue uptake at 1 h,"In vivo biodistribution; iv, Tumor uptake",2.85 ± 0.02 %ID/g
same,tissue uptake at 2 h,"In vivo biodistribution; iv, Tumor uptake",1.31 ± 0.03 %ID/g
same,tissue to tissue ratio at 5 min,"In vivo biodistribution; iv, tumor/blood ratio",3
same,tissue to tissue ratio at 0.5 h,"In vivo biodistribution; iv, tumor/blood ratio",4.09
same,tissue to tissue ratio at 1 h,"In vivo biodistribution; iv, tumor/blood ratio",6.78
same,tissue to tissue ratio at 2 h,"In vivo biodistribution; iv, tumor/blood ratio",7.7
same,tissue to tissue ratio at 5 min,"In vivo biodistribution; iv, tumor/kidney ratio",0.59
same,tissue to tissue ratio at 0.5 h,"In vivo biodistribution; iv, tumor/kidney ratio",0.84
same,tissue to tissue ratio at 1 h,"In vivo biodistribution; iv, tumor/kidney ratio",0.91
same,tissue to tissue ratio at 2 h,"In vivo biodistribution; iv, tumor/kidney ratio",0.62
same,tissue to tissue ratio at 5 min,"In vivo biodistribution; iv, tumor/muscle ratio",5
same,tissue to tissue ratio at 0.5 h,"In vivo biodistribution; iv, tumor/muscle ratio",10.4
same,tissue to tissue ratio at 1 h,"In vivo biodistribution; iv, tumor/muscle ratio",11.4
same,tissue to tissue ratio at 2 h,"In vivo biodistribution; iv, tumor/muscle ratio",12.4
same,tissue uptake at 1 h,"In vivo biodistribution; 60 min p.i., blocked with excess non-radiolabeled BN peptide, MDA-MB-231 tumor, mean ± SD, n = 3, read-out: Tumor uptake",0.66 ± 0.2 %ID/g
same,tissue uptake at 1 h,"In vivo biodistribution; 60 min p.i., blocked with excess non-radiolabeled BN peptide, mean ± SD, n = 3, read-out: Blood uptake",0.29 ± 0.01 %ID/g
same,tissue uptake at 1 h,"In vivo biodistribution; 60 min p.i., blocked with excess non-radiolabeled BN peptide, mean ± SD, n = 3, read-out: Heart uptake",0.27 ± 0.11 %ID/g
same,tissue uptake at 1 h,"In vivo biodistribution; 60 min p.i., blocked with excess non-radiolabeled BN peptide, mean ± SD, n = 3, read-out: Intestine uptake",1.66 ± 0.23 %ID/g
same,tissue uptake at 1 h,"In vivo biodistribution; 60 min p.i., blocked with excess non-radiolabeled BN peptide, mean ± SD, n = 3, read-out: Kidney uptake",3.18 ± 0.2 %ID/g
same,tissue uptake at 1 h,In vivo biodistribution; Lung uptake,0.78 ± 0.02 %ID/g
same,tissue uptake at 1 h,In vivo biodistribution; Muscle uptake,0.13 ± 0.1 %ID/g
same,tissue uptake at 1 h,In vivo biodistribution; Spleen uptake,0.26 ± 0.03 %ID/g
same,tissue uptake at 1 h,In vivo biodistribution; Stomach uptake,0.63 ± 0.1 %ID/g
same,Liver uptake,[1]; 0.5 h,0.52 ± 0.13 %IA/g
same,Stomach uptake,[1]; 0.5 h,0.91 ± 0.04 %IA/g
same,Pancreas uptake,[1]; 1 h,1.98 ± 0.02 %IA/g
same,Stomach uptake,[1]; 2 h,0.20 ± 0.01 %IA/g
